Test: yeast display, Sf9 membrane polyspecificity reagent, FACS + sequencing; frameworks hold sequencing errors
Outline: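 A nanobody's polyreactivity label depends on the gate it was sorted from. Yeast display cells were stained with 10% biotinylated, detergent-solubilized Sf9 membrane reagent for 1 hour at 4 °C, enriched on streptavidin microbeads and sorted by FACS. The low and high (top ~1%) gates were set on anti-HA fluorescence for expression and streptavidin fluorescence for reagent binding.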

Row | Sequence | polyreactivity (PSR sort gate)
1 | QVQLVESGGGLVQAGGSLRLSCAASGSIFKSYAMGWYRQAPGKERELVAAISGRTGSTYYADSVKGRFTISRDNAKNTVSLQMNSLKPEDTAVYYCAAKSQSLYPFAMNYWGQGTQVTVSS | high polyreactivity
2 | QVQLVESGGGLVQAGGSLRLSCAASGSIFKSYAMGWYRQAPGKERELVAAISGSGGRTYYADSVKGRFTISRDNAKNTAYLQMNSLKPEDTAVYYCNALASIRTHTGYAYSPPYDYWGQGTQVTVSS | high polyreactivity
3 | QVQLVESGGGLVQAGGSLRLSCAASGSIFKTNAMGWYRQAPGKERELVAGISNGGSTNYADSVKGRFTISRDNAKNTVYFQMNSLKPEDTAVYYCAAEYEYLWSQYLTDYGYDSWGQGTQVTVSS | low polyreactivity
4 | QVQLVESGGGLVQAGGSLRLSCAASGSIFKVYAMGWYRQAPGTERELVAGITLNGGSTYYADSVKGRFTISRDNAKNNVYLQMNSLKPEDTAVYYCNAVYSYYYRWYYDFDYWGQGTQVTVSS | high polyreactivity
5 | QVQLVESGGGLVQAGGSLRLSCAASGSIFKYAMGWSRQAPGKERELVAAINQRGGRTYYADSVKGRFTISRDNAKNTVYLQMNSLKPEDTAVYYCNAYYLRTSSTEYDYWGQGTQVTVSS | high polyreactivity
6 | QVQLVESGGGLVQAGGSLRLSCAASGSIFKYNDMGWYRQAPGKERELVAAISWRGGRTYYADSVKGRFTISRDNAKNTVYLQMNSLKPEDTAVYYCNVVLDNRRGTYSYYYWGQGTQVTVSS | high polyreactivity
7 | QVQLVESGGGLVQAGGSLRLSCAASGSIFKYNDMGWYRQAPGKEREWVAAIRLGGGSTSYADSVKGRFTISRDNAKNTVYLQMNSLKPEDTAVYYCNAYAVYLRYLWYDYWGQGTQVTVSS | low polyreactivity
8 | QVQLVESGGGLVQAGGSLRLSCAASGSIFKYNTMGWYREAPGKESELVAAINGGGSTYYADSVKGRFTISRDNAKNTVYVTMNCLNPEDTAVYYCAKVQRTRGWSLDYWGHGTQVTVSS | high polyreactivity
9 | QVQLVESGGGLVQAGGSLRLSCAASGSIFKYYAMGGYRQAPGTERELVAAITQRGGSTYYADSVKGRFTISRDNAKNTGYLQMNRLNPEDTAVYYCNRYSLTAWYYRHGYYYWGQGTQVTVSS | high polyreactivity
10 | QVQLVESGGGLVQAGGSLRLSCAASGSIFKYYAMGWYRQAPGKERELVAAISRSGTSTYYADSVKGRFTISRDNAKNTVYLQMNSLKPEDTAVYYCAARLSYYSRMNYWGQGTQVTVSS | high polyreactivity
11 | QVQLVESGGGLVQAGGSLRLSCAASGSIFKYYAMGWYRQAPGKERELVAAISSGGSTKYADSVKGRFTISRDNAKNTVYLQMNSLKPEDTAVYYCAARDPSRHARRAYDYWGEGTQVTVSS | low polyreactivity
12 | QVQLVESGGGLVQAGGSLRLSCAASGSIFKYYAMGWYRQAPGKERQLVAVITSGGSTYYADSVKGRFTISRDNAKNTVYLQMNSLKPEDTAVYYCAAGVRAYNWGEYDYWGLGTQVTVSS | low polyreactivity
13 | QVQLVESGGGLVQAGGSLRLSCAASGSIFKYYSMGWYRQAPGKERELVAAITIGGNTNYADSVKGRFTISRDNAKNTVYLQLNSLKPEDTAVYYCATGGYYSAIVYGGYDYWGQGTQVTVSS | low polyreactivity
14 | QVQLVESGGGLVQAGGSLRLSCAASGSIFLAYAMGWYRQAPGKEREFVAAISFSDGSTYYADSVKGRFTISRDNAKNTVYLQMNSLKPEETAVYYCNKGASPDDYDYWGQGTQVTVSS | low polyreactivity
15 | QVQLVESGGGLVQAGGSLRLSCAASGSIFLEYAMGWYRQAPGKERELVAAISSSGGSTYYADSVKGRFTISRDNAKNTVYLQMNSLKPEDTAVYYCAAGKSKYGVRGYYWGQGTQVTVSS | high polyreactivity
16 | QVQLVESGGGLVQAGGSLRLSCAASGSIFLFNAMGWYRQAPGKERELVAAINRDDSTYYADSVKGRFTISRDNAKNTVYLQMNSLKPEDTAVYYCAARQRLSWKTEYYWGQGTQVTVSS | low polyreactivity
17 | QVQLVESGGGLVQAGGSLRLSCAASGSIFLKNAMGWYRQAPGKERELVAAITPGGSTYYADSVKGRFTISRDNAKNTVYFQMNSLKPEDSAVYHCAARPGGGKYRGYYYWGQGTQVTVSS | high polyreactivity
18 | QVQLVESGGGLVQAGGSLRLSCAASGSIFLKYAMGWYRQAPGKERELVATISRGGITYYADSVKGRFTISRDNAKNTVYLQMNSLKPEDTAVYYCATTGGRQYGYWGQGTQVTVSS | high polyreactivity
19 | QVQLVESGGGLVQAGGSLRLSCAASGSIFLLYAMGWYRQAPGKERELVAAIRWSGARTYYADSVKGRFTISRDKAKNTVYLQMNSLKPDDTAVYYCAADYVVDDIYWWEGDYWGQGTQVTVSS | high polyreactivity
20 | QVQLVESGGGLVQAGGSLRLSCAASGSIFLLYARGWYRQAPGKERELVAAISRGGSTYYADSVKGRFTISRDNAKNTVYLQMNSLKPEDTAVYYCAAKLYYGYDWGQGTQVTVSS | low polyreactivity
21 | QVQLVESGGGLVQAGGSLRLSCAASGSIFLNNAMGWYRQAPGKERELVAAITRNVGSTYYADSVKGRFTISRDNEKNTVYLQMNSLKPEDTAVYYCAADRRRRYDYWGQGTQVTVSS | low polyreactivity
22 | QVQLVESGGGLVQAGGSLRLSCAASGSIFLPNAMGWYRQAPGKEWELVAAISWSGGSTYADSVKGRFTISRDNAKNTVYLQMNSLKPEDTAVYYCAADDGFTPRDLYVGYDYWGLGTQVTVSS | low polyreactivity

Row | Sequence | polyreactivity (PSR sort gate)
23 | QVQLVESGGGLVQAGGSLRLSCAASGSIFLQNAMGWYRQAPGKERELVAAITNGGSTNYADSVKGRFTISRDNAKNTVYLQMNSLKPEDTAVYYCAAERAILSSDKQSLWRFDYWGQGTQVTVSS | low polyreactivity
24 | QVQLVESGGGLVQAGGSLRLSCAASGSIFLQNAMGWYRQAPGKERELVAAITNGGSTNYADSVKGRFTISRDNAKNTVYLQMNSLKPEDTAVYYCAVVRSYRGINDYWGQGTQVTVSS | low polyreactivity
25 | QVQLVESGGGLVQAGGSLRLSCAASGSIFLSNAIGWYRQAPGKERELVADIDWTGGDTYYADSVKGRFTISRDNAKNTVYLQMNSLKPEDTAVYYCASDYGYRNLLTEYGYWGQGTKVTVSS | low polyreactivity
26 | QVQLVESGGGLVQAGGSLRLSCAASGSIFLTNAMGWYRQAPGKERELVAAIRSGGSTSYADSVKGRFTISRDNAKNTVYLQMNSLKPEDTAVYYCNAESDYRNYKVHPSGIYEYWGQGTQVTVSS | low polyreactivity
27 | QVQLVESGGGLVQAGGSLRLSCAASGSIFLTNAMGWYRQAPGKEREMVAAITLSGGITYYADSVKGRFTISRDNAKNNVYLQMNILKPEDTAVYYCAADVPGGIGNGGGYDYWGQGTQVTVSS | low polyreactivity
28 | QVQLVESGGGLVQAGGSLRLSCAASGSIFLTYAMGWYRQAPGKESELVAAISSGDSTNYTDSVKGRFTISRDNAKNTVYLQMNSLKPEDTAVYYCAADLTYTMDHWGQGTQVTVSS | low polyreactivity
29 | QVQLVESGGGLVQAGGSLRLSCAASGSIFLVNAKGWYRQAPGKERELVAAITWIGGSTYYADSVKGRFTISRDNAKNTVYLQMNSLKPEDTAVYYCAAYGKRLGGGGYYWGQGTQVTVSS | high polyreactivity
30 | QVQLVESGGGLVQAGGSLRLSCAASGSIFLVNDMGWYRQAPGKERELVAAISYSGDSTYYADSVKGRFTISRDNAKNTVYLQMNSLKPEDTAVYYCAADVFIISYVAAWHVRIDEFEWGQGTQVTVSS | low polyreactivity
31 | QVQLVESGGGLVQAGGSLRLSCAASGSIFLYNAMGWYRQAPGKERELVAAISASGGSTYYADSVKGRFTISRDNAKNTVYLQMNSLKPEDTAVYYCAAQYSDYDGFTWPLPPRYDYWGQGTQVTVSS | high polyreactivity
32 | QVQLVESGGGLVQAGGSLRLSCAASGSIFLYNAMGWYRQAPGKERELVAAITWSTDRTYYADSVKGRFTISRDNAKNTVYVQMNSLKPEDTAVYYCNRLVNHIYVPRRDYWGQGTQVTVSS | low polyreactivity
33 | QVQLVESGGGLVQAGGSLRLSCAASGSIFLYNAMGWYRQAPGKERELVATITYIGGRTYYADSVKGRFTISRDNAKNTVYLQMNSLKQEDTAVYYCAAEYYVISSPSFYEYDYWGQGTQVTVSS | low polyreactivity
34 | QVQLVESGGGLVQAGGSLRLSCAASGSIFLYNTMGWYRQAPGKQRELVAALTYSGGSTYYADSVKGRFTISRDHAKNTVYLQMNSLKPEDTAVNYGNARHYSAYYSWGQGTLVTVSS | high polyreactivity
35 | QVQLVESGGGLVQAGGSLRLSCAASGSIFLYYAMGWYRQAPGKVRALLAAISWDGGSTYYADSVKGRFTISRDNAKNTVYLQMNSLKPEDTAVYYCNKAPYYYLPHSLRYNYWGQGTQVTVSS | high polyreactivity
36 | QVQLVESGGGLVQAGGSLRLSCAASGSIFMGNAMGWYRQAPGKERELVATITSSGSTSYADSVKGRFTISRDNAKNTVYVQMNSLKPEDTAVYYCNTDLFQYGRTSTIYYEYDYWGQGTQVTVSS | high polyreactivity
37 | QVQLVESGGGLVQAGGSLRLSCAASGSIFNAYAMGWYRQAPGKERELVAVISRPGGSTYYADSVKGRFTISRDNAKNTVYLQMNSLKPEDTAVYYCNVYYPYKHRYYHLDYWGQGTQVTVSS | high polyreactivity
38 | QVQLVESGGGLVQAGGSLRLSCAASGSIFNDNVMGWYRQAPGKERELVAGISRSGTRTYYADSVKGRFTISRDNAKNTVYLQMNSLKPEDTAVYSGAAAYGQARRYNGSQYGSWGQGTQVTVSS | high polyreactivity
39 | QVQLVESGGGLVQAGGSLRLSCAASGSIFNDYGKAWYRQAPGKERDLVAAISASGGSTYYADSVKGRFTISRYNAKNPVYLQLNSLNPEDTAVYYCAAYYMGLYYLYVDALGYDYWGQGTQVTVSS | low polyreactivity
40 | QVQLVESGGGLVQAGGSLRLSCAASGSIFNLNAMGWYIQAPGKERELVASISSDRSTYYADSVKGRFTISRDNAKNTVYLQMNSLKQEDTAVYYCNADSQLAFKQLSFDYWGQGTQVTVSS | low polyreactivity
41 | QVQLVESGGGLVQAGGSLRLSCAASGSIFNLNAMGWYRQAPGKEREFVAGITYSAGRTYYADSVKGRFTISRDNAKNTVYLQMNSLKPEDTAVYYCAARIYSKFTSYGILDSWGQGTQVTVSS | high polyreactivity
42 | QVQLVESGGGLVQAGGSLRLSCAASGSIFNLYAMGWYRQAPGKERELVAAINWSGGSTYYADSVKGRFTISRDNAKNTVYLQMNSLKPEDTAVYYCAADAYSTYYGYEGDYWGQGTQVTVSS | low polyreactivity
43 | QVQLVESGGGLVQAGGSLRLSCAASGSIFNLYAMGWYRQAPGKEREMVAAISYSTGSTYYADSVKGRFTISRDNAKNTVYLQMTSLKPEDTAVYYCNAQEGILGWVLYDYWGQGTQVTVSS | high polyreactivity

Reference: the nanobody polyreactivity screen of Harvey et al. (2022)
